The values below come from patent publication US5759768A, “Assays for factors affecting circularization of DNA, assays for factors affecting DNA integration, factors, and uses thereof” (priority 1995, dated 1998).

Holding throughout (assay type): biochemical, HIV-1
Series [1] has as its system viral DNA integrated into .phi.X174 target DNA. As to conditions: for Relative activity, % of standard: pretreatment/37° C./30 min, target DNA 10 μg/ml. On the procedure: (§1) The chronically HIV-1 infected Molt IIIB human T cell line (HTLV IIIB virus strain) was the source of virus for cell-free infections. This human T cell line constitutively produces a low level of the HTLV-111B strain of HIV-1. Culture supernatant containing a high concentration of virus was prepared by incubating 300×10^6 Molt IIIB cells in 50 ml fresh RPMI 1640 medium containing 20% fetal calf serum and 10 ng of phorbol 12-myristate 13-acetate per ml for 20-24 hours. […] Cytoplasmic extracts (3 ml) were prepared 4-4.5 hours post-infection, by a modification of the procedure of Brown et al., Cell 49: 342-356 (1987).
At specified times after infection, cells were washed twice with buffer K (20 mM Hepes, pH 7.4, 150 mM KCl, 5 mM MgCl2, 1 mM dithiothreitol, […]) and then lysed at a concentration of 33×10^6 cells per ml in the same buffer containing 0.025% digitonin or 0.025% Triton X-100. Cells were extracted for 10 minutes at room temperature, and the lysate was centrifuged at 1000×g for 3 minutes, and is referred to as "cytoplasmic extract". Cytoplasmic extract was the source of viral DNA for analyses in the assays described below. The pellet from the initial low-speed centrifugation contained cell debris and intact nuclei and is called the "nuclear pellet". Cell extracts from uninfected SupT1 cells were prepared in the same manner.
DNA samples were layered on 0.8% agarose gels and electrophoresed at 1 V/cm for 15 hour in Tris/acetate/EDTA buffer. After electrophoresis, DNA was blotted by capillary action onto nitrocellulose (0.45 μm, Schleicher & Schuell). […]
Cytoplasmic extracts prepared from SupT1 cells 4 hours after infection with HIV-1 were incubated with exogenously added target DNA under integration reaction conditions. Products of the reactions were analyzed by Southern blot hybridization. The time course of integration into linear .phi.X174 DNA target was determined. […] Integration was detected by the shift of linear viral DNA on Southern blots from the characteristic 9.7-kilobase (kb) position to a position corresponding to viral DNA plus target DNA.

A further series concerns preintegration complexes. Nature of the series: Circularization mediated by partially purified preintegration complexes. Conditions: pretreatment of uninfected SupT1 extracts. On the procedure:
Viral preintegration complexes were partially purified from cytoplasmic extracts by Sephacryl S400 gel filtration chromatography. Cytoplasmic extracts (0.8 ml) were loaded onto a 22-ml Sephacryl S400 (Pharmacia) column, 28 cm in height, equilibrated in buffer K containing 0.5% Triton X-100 at 4° C. Fractions (0.5 ml) were collected at a flow rate of approximately 0.2 ml/min.
The linear viral DNA present in cytoplasmic extracts is a part of the nucleoprotein preintegration complex that can be separated from the bulk of cellular proteins by gel filtration chromatography [Farnet and Haseltine, J. Virol., 65: 1910-1915 (1991)]. Preintegration complexes were partially purified by Sephacryl S400 column chromatography and tested for the ability to mediate the circularization of viral DNA. Cytoplasmic extracts (1 ml, vol) were fractionated by Sephacryl S-400 gel filtration chromatography as previously described. The void volume fractions of the column, containing the peak of viral DNA, were pooled (total volume, 1.5 ml) and incubated as follows with the results shown in FIG. 20. […]

Series [2] deals with linear viral DNA (circularization). Conditions: pretreatment for 30 minutes prior to addition of ATP. On the procedure:
as §1
At specified times after infection, cells were washed twice with buffer K (20 mM Hepes, pH 7.4, 150 mM KCl, 5 mM MgCl2, 1 mM dithiothreitol, […]) and then lysed at a concentration of 33×10^6 cells per ml in the same buffer containing 0.025% digitonin or 0.025% Triton X-100. Cells were extracted for 10 minutes at room temperature, and the lysate was centrifuged at 1000×g for 3 minutes, and is referred to as "cytoplasmic extract". Cytoplasmic extract was the source of viral DNA for analyses in the assays described below. […]
Cell extracts were prepared from cells four to five hours after infection with HIV-1, using the above-described methods to yield fully functional viral preintegration complexes. […] Therefore, only LTR-containing DNA fragments are detected. […]

In series [3] the test system is purified linear viral DNA. Kind of series: Ligation of purified linear viral DNA by phage T4 DNA ligase and Klenow fragment. As to conditions: T4 DNA ligase alone. On the procedure: Linear viral DNA was purified from cytoplasmic extracts of cells 4 hours post-infection as described above. In FIG. 22, a purified linear viral DNA was added to cytoplasmic extracts from uninfected SupT1 cells and incubated at 37° C. for 45 minutes. The uninfected SupT1 cells used for the preparation of extracts were either untreated (lanes 3-11) or cultured in the presence of 10 ng/ml phorbol 12-myristate 13-acetate for six hours prior to extraction (lane 2). […] Lanes 2-11: reaction products following incubation of purified linear viral DNA in uninfected extracts containing 1 mM ATP (lanes 2 and 3), nothing added (lane 4), 1 mM dATP (lane 5), 1 mM UTP (lane 6), 1 mM CTP (lane 7), 1 mM GTP (lane 8), 1 mM ATPγS (lane 9), or 1 mM ADP (lane 10). Lane 11: uninfected SupT1 cell extract was treated with proteinase K for 10 minutes at 37° C., then linear viral DNA was added and incubation continued for 45 minutes. In FIG. 23, lanes 1, 2, 4 and 5: purified linear viral DNA was incubated with T4 DNA ligase (lane 1), T4 polynucleotide kinase and T4 DNA ligase (lane 2), Klenow fragment of E. coli DNA polymerase I and T4 DNA ligase (lane 3), or Klenow fragment, T4 polynucleotide kinase, and T4 DNA ligase (lane 4). Lanes 3 and 6: in vitro circularization reaction products generated in cell extracts, included as size standards. […]

B1: RNase A: RNase A (protein, UniProt P61823 27-150, looked up)
Ribonuclease pancreatic: KETAAAKFERQHMDSSTSAASSSNYCNQMMKSRNLTKDRCKPVNTFVHESLADVQAVCSQKNVACKNGQTNCYQSYSTMSITDCRETGSSKYPNCAYKTTQANKHIIVACEGNPYVPVHFDASV
Take B1: the “Relative activity, % of standard” value in series [1] was 100 % of standard.

B2: Proteinase K: an enzyme such as proteinase K (protein, UniProt P06873 106-384, looked up)
Proteinase K: AAQTNAPWGLARISSTSPGTSTYYYDESAGQGSCVYVIDTGIEASHPEFEGRAQMVKTYYYSSRDGNGHGTHCAGTVGSRTYGVAKKTQLFGVKVLDDNGSGQYSTIIAGMDFVASDKNNRNCPKGVVASLSLGGGYSSSVNSAAARLQSSGVMVAVAAGNNNADARNYSPASEPSVCTVGASDRYDRRSSFSNYGSVLDIFGPGTSILSTWIGGSTRSISGTSMATPHVAGLAAYLMTLGKTTAASACRYIADTANKGDLSNIPFGTVNLLAYNNYQA
With B2, the “ability of uninfected extracts to restore 1-LTR and simple 2-LTR circle formation” value in the series on preintegration complexes was “abolished the ability of the extracts to restore 1-LTR and simple 2-LTR circle formation”. In series [1] (pretreatment of extracts prior to incubation with target DNA), the integration in vitro entry is “abolished integration in vitro”. Further, the “Relative activity, % of standard” value in series [1] is 0 % of standard. In addition, the circle formation entry in series [2] was “abolished circle formation”.

B3: T4 DNA ligase: phage T4 ligase (protein, UniProt P00970 1-487, looked up)
DNA ligase: MILKILNEIASIGSTKQKQAILEKNKDNELLKRVYRLTYSRGLQYYIKKWPKPGIATQSFGMLTLTDMLDFIEFTLATRKLTGNAAIEELTGYITDGKKDDVEVLRRVMMRDLECGASVSIANKVWPGLIPEQPQMLASSYDEKGINKNIKFPAFAQLKADGARCFAEVRGDELDDVRLLSRAGNEYLGLDLLKEELIKMTAEARQIHPEGVLIDGELVYHEQVKKEPEGLDFLFDAYPENSKAKEFAEVAESRTASNGIANKSLKGTISEKEAQCMKFQVWDYVPLVEIYSLPAFRLKYDVRFSKLEQMTSGYDKVILIENQVVNNLDEAKVIYKKYIDQGLEGIILKNIDGLWENARSKNLYKFKEVIDVDLKIVGIYPHRKDPTKAGGFILESECGKIKVNAGSGLKDKAGVKSHELDRTRIMENQNYYIGKILECECNGWLKSDGRTDYVKLFLPIAIRLREDKTKANTFEDVFGDFHEVTGL
Take B3: the “ligation of the ends of linear viral DNA” value in series [3] is “unable to ligate the ends of the linear DNA molecules”.
